In patent publication US7666989B2 (priority 2003, dated 2010):
“And” between values parts separate entries of the source, which are not always exact repeats. Equal entries are not always repeated. “Also recorded” adds a separate entry of the source. Where two headings read alike, the source gives them in different places. Marks after values point to notes of the source that are not given here.

Tests used:
[1] = Water solubility of the end product; assay type: physicochemical; settings: purified protein, white powder
Text: Finally, the protein was purified by an ion exchange column and a gel filtration column Superdex 200 (Pharmacia) mounted in an AKTA HPLC system (Pharmacia). […] The end product was a white powder and was water soluble.

[2] = Side or toxic effects in treated tumor-bearing nude mice; assay type: in vivo, BALB/c-nu nude mice; settings: treated nude mice versus negative control; body weight and viability
Text: No substantial difference in the parameters concerning the living status of mice, such as body weight and viability of the treated groups were observed compared with those of the negative control group, except that the sizes of tumor in the treated mice were smaller. […] Therefore, CPT may be used as an effective and safe medicament for treating cancers. CPT is both theoretically and industrially important and has a bright future in the market.

[3] = test system: human brain glioma U251; settings: U251 xenograft, ten injections; for Body Weight (g) Start / Tumor volume (mm^3) Start: baseline; for Inhibition rate (%): by tumor weight
Text: In this example, the animals used were BALB/c-nu nude mice, 6-8 weeks old. For each experiment, all animals were of the same sex.
Tumor cell lines: human brain glioma U251, human lung cancer cell line NCI-H460, human colon cancer cell line COLO205 were inoculated from in vitro culture into nude mice subcutaneously, the tumors were subcultured and kept.
Experimental Procedures: well-grown nude mice carrying well-grown tumors were selected and sacrificed by disjointing neck vertebra. The tumors were removed aseptically and were cut into pieces having a diameter of 2-3 mm by a scalpel. The pieces were inoculated into the axilla of nude mice subcutaneously by a needle. […] The length and width of tumors were measured by a vernier caliper. The animals were then grouped based their tumor sizes. Each group included seven to eight animals.
The length, width of the tumor and the body weight of the mice were measured twice per week. The tumor volume (TV) and relative tumor volume (RTV) were calculated. A graph indicating the changes of tumor size was plotted. At the end of this experiment, the tumors were taken out and weighed after the mice were sacrificed, and the inhibition rates of the medicament on tumor growth were calculated.
The formula for calculating tumor volume (TV) is: length×width^2÷2.
The formula for calculating relative tumor volume (RTV) is: Vt/Vo (wherein Vo is the TV value measured when the administration is started, Vt is the TV value measured after that).
T-test was used to determine the statistical difference of tumor weights, tumor volumes and RTV etc. between different groups of animal. The index used for evaluating the anti-tumor activity is the relative tumor growth rate T/C (%), the formula for which is: […]
The evaluation standard for efficacy:
T/C (%)>60 is ineffective;
T/C (%)≦60 and P<0.05 after statistical analysis is effective.
The Carmustine (Renmin Pharmaceuticals, Amino Acid Inc. Tianjin, P. R. China) was used as the positive control, 40 mg/kg, administered by intraperitoneal injection for once. CPT was given to four groups at the doses of 0.6 mg/kg, 1.7 mg/kg, 5.0 mg/kg, 15.0 mg/kg respectively, administered by intraperitoneal injection. The treatment included ten injections.

[4] = test system: SCLC (human small-cell lung cancer cell); experiment: MTT cytotoxicity, SCLC; assay type: cell-based
Text: Reagents: RPMI1640 is from GIBCO; MTT is from Bebco. Fetal bovine serum is purchased from Hangzhou SiJiQing Bioengineering Material Co. Ltd. (P. R. China).
Cell lines: COLO 205 (human colon cancer cell), NCI-H460 (human lung cancer cell), RPMI 8226 (human multiple myeloma cell), U251 (human brain glioma cell) are from ATCC, USA. HL-60 (human promyelocytic leukemia cell), MDA-MB-231, MDA-MB-435 (human breast cancer cell), SCLC (human small-cell lung cancer cell), H125 (human lung cancer cell) and PC-3 (human […] cancer cell).
The well-grown tumor cells were collected to prepare a cell suspension (1×10^4/ml) with RPMI 1640 medium containing 10% fetal bovine serum. The cell suspension was inoculated into a 96-well plate, 100 μL (containing 1000 tumor cells) per well. The plate was cultured in a 5% CO2 incubator at 37° C. for 24 hours, followed by addition of medicament.
A blank control and a positive control using 5-fluorouracil or adriamycin are employed in the experiment. The CPT samples have five concentrations, three parallel wells for each concentration. The cells were cultured in an incubator with 5% CO2 at 37° C. for 4 days. Then the culture medium was removed and 100 μL MTT solution (0.4 mg/ml in RPMI 1640) was added to each well. The plate was incubated at 37° C. for four additional hours.
The supernatant was discarded. 150 μl DMSO was added into each well in order to solubilize Fomazan granulates. After gently shaking, the OD values were measured by a BIORAD 550 enzyme analyzer, with the detection wavelength being 540 nm and the reference wavelength being 450 nm.
Dose-response curves were generated by plotting with the cell inhibition rates and different concentrations of medicament, and the half inhibitory concentrations (IC50) were calculated.

B1: CPT: human recombinant circularly permuted TRAIL (CPT), which consists of 166 amino acid residues; SEQ ID No:2 (protein)
chain: TLSSPNSKNEKALGRKINSWESSRSGHSFLSNLHLRNGELVIHEKGFYYIYSQTYFRFQEEIKENTKNDKQMVQYIYKYTSYPDPILLMKSARNSCWSKDAEYGLYSIYQGGIFELKENDRIFVSVTNEHLIDMDHEASFFGAFLVGGGGGGVAAHITGTRGRSNT
modifications: Synthetically generated peptide
water solubility of the end product [1]: water soluble | side or toxic effects on animals [2]: did not exhibit any apparent side or toxic effects | Body Weight (g) End ([3]; CPT 0.6 mg/kg i.p.): 21.0 ± 1.4 g | RTV ([3]; CPT 0.6 mg/kg i.p.): 2.77 ± 1.97 | T/C (%) ([3]; CPT 0.6 mg/kg i.p.): 82.9% | Tumor volume (mm^3) End ([3]; CPT 0.6 mg/kg i.p.): 961 ± 582 mm^3 | Tumor weight ([3]; CPT 0.6 mg/kg i.p.): 0.89 ± 0.49 g | Body Weight (g) Start ([3]; CPT 0.6 mg/kg i.p.): 21.0 ± 0.8 g | Tumor volume (mm^3) Start ([3]; CPT 0.6 mg/kg i.p.): 141 ± 40 mm^3 | Inhibition rate (%) ([3]; CPT 0.6 mg/kg i.p.): 30.5% | Body Weight (g) End ([3]; CPT 1.7 mg/kg i.p.): 21.5 ± 2.0 g | RTV ([3]; CPT 1.7 mg/kg i.p.): 2.12 ± 1.29 | T/C (%) ([3]; CPT 1.7 mg/kg i.p.): 63.5% | Tumor volume (mm^3) End ([3]; CPT 1.7 mg/kg i.p.): 588 ± 215** mm^3 | Tumor weight ([3]; CPT 1.7 mg/kg i.p.): 0.71 ± 0.22 g | Body Weight (g) Start ([3]; CPT 1.7 mg/kg i.p.): 21.6 ± 1.2 g | Tumor volume (mm^3) Start ([3]; CPT 1.7 mg/kg i.p.): 131 ± 34 mm^3 | Inhibition rate (%) ([3]; CPT 1.7 mg/kg i.p.): 44.5% | Body Weight (g) End ([3]; CPT 5.0 mg/kg i.p.): 21.9 ± 3.2 g | RTV ([3]; CPT 5.0 mg/kg i.p.): 1.32 ± 1.24 | T/C (%) ([3]; CPT 5.0 mg/kg i.p.): 39.5% | Tumor volume (mm^3) End ([3]; CPT 5.0 mg/kg i.p.): 510 ± 333** mm^3 | Tumor weight ([3]; CPT 5.0 mg/kg i.p.): 0.45 ± 0.26 g | Body Weight (g) Start ([3]; CPT 5.0 mg/kg i.p.): 22.0 ± 1.1 g | Tumor volume (mm^3) Start ([3]; CPT 5.0 mg/kg i.p.): 133 ± 57 mm^3 | Inhibition rate (%) ([3]; CPT 5.0 mg/kg i.p.): 64.8% | Body Weight (g) End ([3]; CPT 15 mg/kg i.p.): 21.1 ± 1.7 g | RTV ([3]; CPT 15 mg/kg i.p.): 0.71 ± 0.57 | Tumor volume (mm^3) End ([3]; CPT 15 mg/kg i.p.): 261 ± 238** mm^3 | Tumor weight ([3]; CPT 15 mg/kg i.p.): 0.16 ± 0.15 g | Body Weight (g) Start ([3]; CPT 15 mg/kg i.p.): 21.6 ± 1.1 g | Tumor volume (mm^3) Start ([3]; CPT 15 mg/kg i.p.): 148 ± 58 mm^3 | Inhibition rate (%) ([3]; CPT 15 mg/kg i.p.): 87.5% and 87.7% | IC50 ([4]; 4 days): 10 ± 0 µg/mL | inhibitory effect on the growth of SCLC cell ([4]; in words): some inhibitory effect; also recorded: some inhibition effect
